The source of these data is patent publication US20250313627A1 (FUSE BIOTHERAPEUTICS, published 2025).

The target in experiment [1] is T1, recombinant His tagged human ROR1 (human, UniProt Q01973 30-403, limits assumed).
T1 construct: Analyte in the BLI assay; also called Human ROR1-His; recombinant ROR1
Put plainly: BLI (Octet), FUSE protein on the tip, His tagged ROR1 in solution; 5A1 parental VHH-Fc. The procedure:
As shown in FIGS. 5A-5D, the binding affinities (KD) of TCEs for ROR1 were assessed. We examined the magnitude by which several TCEs and mutants thereof bind to recombinant ROR1. Kinetic binding graphs were generated via Bio-Layer Interferometry (BLI) using an Octet system. For each TCE, the biosensor tips were coated with FUSE proteins at 15 μg/ml and probed with either recombinant His tagged ROR1 at concentrations ranging from 100 pM to 10 μM. […] The binding affinity (KD), on rate (k-on) and off rate (k-dis), are summarized for ROR1 in FIG. 5D.
We further examined the impact of mutating the cysteine residues located in CDR1 and CDR3 of 2A11 VHH and 5A1 VHH.
A general note: In BLI a coated tip is dipped into the sample, and binding shifts an interference pattern.

Experiment [2] concerns the target T2, human ROR1 (Receptor Tyrosine Kinase-Like Orphan Receptor 1) on the cell surface (human, UniProt Q01973 30-937).
T2 construct: whole, on cells; engineered into B16-F10 (high density) and LS174T (low density) cells; also called B16-F10-ROR1-H; LS174T-ROR1-L
Put plainly: flow cytometry, B16-F10 cells expressing human ROR1 (high density). For orientation: A flow cytometer gives signals particle by particle.

Experiment [3] addresses T1, recombinant His tagged human ROR1. The experiment is described as follows: SPR (Biacore 8K), recombinant human ROR1 amine-coupled on a CM5 chip (4400 RU), analyte 200nM, 1:1 binding fit [table below it]. The procedure: (§1) Protein test article binding to recombinant human ROR1 (Acro Biosystems, RO1-H522y) was detected on a BIAcore 8K (Cytiva) biosensor system using an SPR assay. Briefly, a carboxymethylated CM5 sensor chip was activated with 1:1 mixture of 0.4 M N-ethyl-N-(3-dimethylaminopropyl) carbodiimide and 0.1 M′ N-hydroxysuccinimide. Recombinant human ROR1 in 10 mM NaOAc (pH5) was then immobilized on the sensor chip by amine-coupling according to the manufacturer's instructions to yield the stable RU of 4400. Unreacted sites were blocked with 1M ethanolamine/HCl (pH 8). Control flow cells (blank) were activated and blocked in the absence of ROR1. Flow cells were routinely equilibrated with running buffer (PBS, 0.005% surfactant P20). Test article proteins used for assessment of binding to recombinant human ROR1 binding were diluted in HBS-EP running buffer and injected into the sensor chip at different concentrations. […] Data from duplicate assays were modeled for binding equilibrium and dot plots for 200 nM of protein test article was calculated. Association constant (ka), dissociation constant (kd) and binding affinity (KD=kd/ka) were generated from integrated software in the BIAcore 8K system.
(§2) Shown are sensorgrams of surface plasmon resonance (SPR) data generated via Biacore analysis. A summary table of binding affinity (KD), on rate (k-a) and off rate (kd) is shown below FIG. 16B.
(In SPR one partner is held on a chip, and binding of the other changes the refractive index at the surface.)

Experiment [4] shares this target. The experiment is described as follows: BLI (Octet), VHH-Fc loaded on the biosensor, His tagged ROR1 in solution.
For experiment [5], the target named is T2, human ROR1 (Receptor Tyrosine …). Put plainly: flow cytometry, B16-F10 cells expressing human ROR1 (high density). The source holds these as a separate data set.
The target is the same in experiment [6]. The experiment is described as follows: flow cytometry, LS174T cells expressing human ROR1 (low density). As for the experimental part:
(§3) As shown in the tables below, mouse B16-F10 melanoma (Tables 9A-9F) or LS174T human colorectal adenocarcinoma (Tables 9G-9H) cells genetically engineered to express human ROR1 at high and low densities, respectively, were stained for flow cytometric analysis with 100 nM of humanized variants of the ROR1 specific VHHs, 5A1 or 2A11 in either a VHH-Fc format or the Ac13 format shown in FIG. 1. Cells were analyzed on a flow cytometer after the primary test article was fluorescently tagged with a goat anti human IgG-Fc specific PE secondary antibody. The positive control used was PE conjugated anti-human ROR1 clone 2A2. Negative controls included a PE labeled mouse IgG Ab, the secondary antibody only, the combination of a Hen Egg Lysozyme (HEL) specific antibody plus goat anti human IgG-Fc specific PE and Fluorescence Minus One (FMO). Other controls included the non-humanized version of 5A1-Fc (FUSE179), 2A11-Fc (FUSE112) and 5A1-Ac13 (FUSE488). Humanized variants were generated using computational design (FUSE489, FUSE497-498, FUSE563, FUSE569-570, and BI-HU9-VHH11-33), a yeast display library in which mutations were inserted into the Vernier zone residues of human framework indicated in GenBank accession number M99660 (FUSE524-525, FUSE589, FUSE597-598, FUSE537, FUSE661-662, BI-HU9-HK and BI-HU9-HK-1), and a second yeast display library in which mutations were inserted into the Vernier zone residues of human framework indicated in GenBank accession number AWH66715 and amino acid position 103 within CDR3 (FUSE559, FUSE590-596, BI-HU9-VH9-1, FUSE654-655 and FUSE661-662. Affinity matured variants of FUSE559 were also generated using computational design (F22158101-21; Table 9H).

Experiment [7] concerns the target T1, recombinant His tagged human ROR1. The experiment is described as follows: SPR (Biacore 8K), recombinant human ROR1 amine-coupled on a CM5 chip (4400 RU), analyte 200nM, 1:1 binding fit; column '1:1 binding ka (1/Ms)' [table below it]. As for the experimental part:
as §1, §2

The target of experiment [8] is T2, human ROR1 (Receptor Tyrosine …). Put plainly: flow cytometry, B16-F10 cells expressing human ROR1 (high density). The procedure: as §3
The source holds these as a separate data set.

Experiment [9] has the same target. The experiment is described as follows: flow cytometry, LS174T cells expressing human ROR1 (low density). This is another data set of the same source.
The target is the same in experiment [10]. The experiment is described as follows: flow cytometry, B16-F10 cells expressing human ROR1 (high density). As for the experimental part:
as §3
The source holds these as a separate data set.

Experiment [11] has the same target. The description is as above. The procedure: as §3
This is another data set of the same source.

The target of experiment [12] is T1, recombinant His tagged human ROR1. The experiment is described as follows: SPR (Biacore 8K), recombinant human ROR1 amine-coupled on a CM5 chip (4400 RU), analyte 200nM, 1:1 binding fit; column 'kd (1/s)' [table below it]. As for the experimental part: as §1, §2
Experiment [13] has as its target T2, human ROR1 (Receptor Tyrosine …). Put plainly: flow cytometry on B16-F10 cells engineered to express human ROR1, secondary antibody to the IgG1 Fc. The procedure:
As shown in FIG. 15 the apparent binding affinity (EC50-binding) of the ROR1 specific VHH-Fc incorporating either the non humanized VHH clone 5A1 (FUSE179; black circle), the humanized clone 5A1-FA9-HK1 (FUSE559; black square) or the humanized clone 5A1-HK1 (FUSE524; black triangle) was calculated. Shown is a non-linear x-y plot of binding to B16-F10 cell engineered to express human ROR1 relative to the concentration of test article used for staining. A Hen Egg Lysozyme (HEL)-specific antibody was used as the negative isotype control. Binding was measured via flow cytometry using a fluorescently labeled secondary antibody specific for the Fc domain of IgG1. A summary table of EC50s and maximum MFI is shown beneath under the graph.

The target in experiment [14] is T1, recombinant His tagged human ROR1. The experiment is described as follows: BLI (Octet), VHH-Fc loaded on the biosensor, His tagged ROR1 in solution; column 'kdis(1/s)'.

T2 sequence (Q01973 30-937): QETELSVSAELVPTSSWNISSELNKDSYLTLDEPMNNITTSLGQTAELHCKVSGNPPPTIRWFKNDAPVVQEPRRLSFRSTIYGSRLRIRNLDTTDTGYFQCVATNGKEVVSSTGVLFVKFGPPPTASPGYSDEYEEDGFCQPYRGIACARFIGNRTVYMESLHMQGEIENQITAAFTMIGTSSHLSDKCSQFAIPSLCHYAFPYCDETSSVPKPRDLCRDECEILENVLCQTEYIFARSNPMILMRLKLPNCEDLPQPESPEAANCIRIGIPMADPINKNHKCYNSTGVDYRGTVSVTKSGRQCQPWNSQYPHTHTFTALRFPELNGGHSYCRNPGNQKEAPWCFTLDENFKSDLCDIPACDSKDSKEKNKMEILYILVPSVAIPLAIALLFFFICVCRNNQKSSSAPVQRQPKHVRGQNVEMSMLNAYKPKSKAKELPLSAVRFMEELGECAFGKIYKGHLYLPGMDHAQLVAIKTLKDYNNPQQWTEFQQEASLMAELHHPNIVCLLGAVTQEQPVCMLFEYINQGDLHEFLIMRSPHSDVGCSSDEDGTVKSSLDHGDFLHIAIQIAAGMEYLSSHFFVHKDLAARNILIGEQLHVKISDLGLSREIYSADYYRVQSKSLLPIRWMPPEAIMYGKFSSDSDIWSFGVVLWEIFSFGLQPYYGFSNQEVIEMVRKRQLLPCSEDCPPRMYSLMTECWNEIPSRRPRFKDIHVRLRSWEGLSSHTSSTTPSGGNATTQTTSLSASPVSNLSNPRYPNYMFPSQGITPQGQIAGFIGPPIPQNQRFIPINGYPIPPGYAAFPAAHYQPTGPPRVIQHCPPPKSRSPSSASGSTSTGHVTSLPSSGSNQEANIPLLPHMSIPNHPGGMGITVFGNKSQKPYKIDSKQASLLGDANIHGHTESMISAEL
T1 sequence (Q01973 30-403 limits assumed): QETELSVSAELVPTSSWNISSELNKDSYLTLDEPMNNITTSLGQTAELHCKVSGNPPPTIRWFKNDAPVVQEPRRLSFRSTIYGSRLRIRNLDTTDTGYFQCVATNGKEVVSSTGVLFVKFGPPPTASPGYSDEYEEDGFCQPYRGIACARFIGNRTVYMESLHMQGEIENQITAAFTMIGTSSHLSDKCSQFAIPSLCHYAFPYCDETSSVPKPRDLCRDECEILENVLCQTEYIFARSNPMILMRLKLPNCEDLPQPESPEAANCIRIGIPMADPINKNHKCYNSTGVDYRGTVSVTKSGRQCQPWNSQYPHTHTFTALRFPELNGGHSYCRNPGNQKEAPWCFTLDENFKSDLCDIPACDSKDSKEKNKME

B1: FUSE-179 (5A1 VHH-human-Fc fusion protein) (Fc fusion)
chain: QVQLQESGGGSVQAGGSLKLSCTASGYTNRLKCMGWFRQAPGKEREEIATISTGTGNTYYADSVKGRFTFSQDKVKNTVYLQMNTLKPDDTGMYYCAADVRPDGTTCHYNSGGQGTQVTVSS
notes: VHH-human-Fc fusion; non-humanized 5A1; not shown: human Fc
Regarding B1, the Kd in experiment [1] is about 4 nM; in experiment [3], 7.38 nM; in experiment [4] it was 36 nM. Further, the MFI in experiment [2] came to 4480; in [5], 93800; in experiment [6], 3060; in [8] it was 3730; in experiment [9] it was 836; in experiment [10], 8480. Besides, in [11], the MFI came out at 4220. Moreover, the results for the kon in experiment [4] and in experiment [7] were 48200 M⁻¹ s⁻¹ and 144000 M⁻¹ s⁻¹, respectively. Also, the koff turned out to be 0.00106 s⁻¹ in experiment [12] and 0.00174 s⁻¹ in experiment [14]. For the same molecule, in [13], it took 2.04 nM to reach a half-maximal effect (EC50). Moreover, the “Max MFI” value in experiment [13] worked out at 4900 MFI.

A word on the Kd: it is the constant that tells how readily two partners part at equilibrium. One may read the kon as the second-order rate constant of association. The term koff denotes the rate constant with which the complex falls apart. Usually EC50 stands for the midpoint of the concentration-response curve. Lower therefore signals an effect from little substance.
